From the nanobody polyreactivity screen of Harvey et al. (2022)

Assay: yeast display, Sf9 membrane polyspecificity reagent, FACS + sequencing; frameworks hold sequencing errors
Method in brief: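 After 36–48 hours of galactose induction, yeast (Saccharomyces cerevisiae BJ5465) displaying a synthetic nanobody library were stained at 4 °C for 1 hour with 10% biotinylated, detergent-solubilized Sf9 membrane reagent. Streptavidin microbeads enriched the stained cells before FACS sorting into low and high (top ~1%) gates on anti-HA and streptavidin fluorescence. Each clone's polyreactivity label reflects its gate of origin.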

Sequence | polyreactivity (PSR sort gate)
QVHLQESGAGLVQVGGSQRLSCAASGNIFYNYAMGWSRHAQGKEREFDATINHGTSINYADSVKGRFTISRDNAKNNVYLQMNCLKPEDTAVYYCAADLSWTDNLFYWGQGTQVSVSS | low polyreactivity
QVHLQESGGGLEQAGGSLSPSCAASGSISNGVPMGWYRQAPGEERELVATTVLGATTNYADSVKGRFTISRGNAKNPVYLQMNSLKPEETAVYYCAAPLRYDKGFSYWGQGTQVTVSS | low polyreactivity
QVHLQESGGLVQAGGLRLSCAASGSVSYQEAMGWYPQAPGKERELVATISFGANTNYADSVKGRFTISRDNAKNTVYLQRNCLKPEDTAVYYCAAESLFDDYYGYWGQGTQVTVSS | low polyreactivity
QVHLVDSGGGIVQAGGSLRLSCAATGRISGVYAMVWYRQAPGKERELVAAISWSGGRTYYADSVKGRFTISRDNAKNTVYLQMNSLKPEDTAVYYCNADTGFRSYRRDYWGQGTQVTVSS | low polyreactivity
QVHLVDSGGGLVQAGGILRLSCSDYGSTFALYAMGWYRQSPGKVSELVAPITTSGGNTYYADSVKGRFTISRDNAKNTVYLQMNSLKPEDTAVYYCAADPWWSYTSYLRYYNLEMNYWGQGTQVTVSS | high polyreactivity
QVHLVDSGGGLVQAGGSLRLSCAASGFIFWSYAMGWYRQAPGKERELVAAISFRGGSTFYADSVKGRFTISRDNAKNTVYLQMNSLKPEDTAVYYCAVGVYPSYRGPTFSTRRDYWGQGTQVTVSS | low polyreactivity
QVHLVDSGGGLVQAGGSLRLSCAASGFTFDYYAMGWYRQAPGKERELVAAITSDGSTYYADSVKGRFTISRDNAKNTVYLQMNSLKPEDTAVYYCAADGISLYATAYDYWGQGTQVTVSS | low polyreactivity
QVHLVDSGGGLVQAGGSLRLSCAASGSISYDNAMGWYRQAPGKERELVAAITFSGDSTNYADSVKGRFTISRDNAKNTVYLQMNSLKPEDTAVYYCAASQVSDTTRFGYWGQGTQVTVSS | low polyreactivity
QVHLVDSGGGLVQAGGSLRLSCAASGSTFYYYVMGWYRQAPGKERELVAAISSGGHPNYADSVKGRFTISRDNAKNTVYLEMNSLKPEDTAVYYCAAKARRGTLLRYGYWGQGTQVTVSS | high polyreactivity
QVHLVDSGGGLVQAGGSLRLSCAASGYTFIAYTMGWYRQAPGKERELVAAITTGGRTYYADSVKGRFTISRDNAKNTVYLQMNSLKPEDTAVYYCAAYYSARYKYGGVDYWGQGTQVTVSS | high polyreactivity
QVHLVDSGGGLVQARGSLRLSCAASGFTIGPYAMGWYRQAPGKERELVAAITIRGGSTYADSVKGRFTISRDNAKNTVYLQMNSLKPEDTAVYYCATVRALEYNYWGQGTQVTVSS | low polyreactivity
QVHLVEAGGGLVQAGGSRRLSCAASGGIFTDYTMGWYRQAPGKETELVAAITWTGGSTYYADSVKGRFTISRDNAKNTVYLQMNSLKPEDTAVYDCAADDYWVNLDYWGQGTQVTVSS | low polyreactivity
QVHLVESAGGLVQAGGSLSLSCAASAITLYFNAMGWYRQAPGKEREWVAAISWSGDSTYYADSVKGRFTISRDNAKNTVYLQMNSLKPEDTAVYYCAADRYTYYHYAWYEYWGQGTQVTVSS | low polyreactivity
QVHLVESGAGLDQAGVRLRLSCAPSGTTFDYNTMGWYRQAPGKERELVASINNSGGSTYYADSVKGRFTISRDNAKNTVYLQMISLKPVDTAVYYCAAVSYRRHFGPYNYWGQGTQVTVSS | low polyreactivity
QVHLVESGAGLVQAGGSLRLSCPASGSIFFLYPMGWYRQAPGKESELVAAITWRVGSTYYADSVKGRFTISRDNAKNTVYLQMNSLKPEDTAVYYCAAYFLGFQVRYDYWGQGTQVTVSS | high polyreactivity
QVHLVESGGALVQAGGSLPLSFSASGSIFTYYAMGWYRQQPGKERELVAAINSGGRTNYADSVKGRFTISRDNAKNTVYLQMNSLKPEDTAVYYCAKYGVLQYGYWGQGTQVTVSS | low polyreactivity
QVHLVESGGALVQAGGSLRLSCAASGFIFNHYAMGWYRQAPGKEQEFVAAISWSGGSTYYADSVKGRFTISRDNAKITVYLQMNSLKPEDTAVYYCAAAVWYRGWYRYDYWGQGTQVTVSS | low polyreactivity
QVHLVESGGCLVQAGGSLRLSCAASGYIIGINAMACYRQAPRKESELVPAISRSGGSTYYAESVKGRFTISRDNAKNTVYLQMNSLKPEDTAVYYCASDILRFYSDTYGTEYWGQGTQVTVSS | high polyreactivity
QVHLVESGGCLVQAGGSLRLSCSASRSIFPNNDMGWYRQQPGKERELVPAITTRGTSTYYAESVKGRFTISRDYAKNTVYLQMKSLKPEDTAVYFCAVGRRGYSAGGVAYYYWGQGTQVTVSS | low polyreactivity
QVHLVESGGGFVQAGGSLRLICAASGITFGIYVMGWSRQAPGKERELVATISRSDDNSYYADSVKGRFTISRDNAKNTVYLQMNSLKPEDTAVYYCAADGVISAWYSSRDDYWGQGTQVTVSS | low polyreactivity
QVHLVESGGGFVQAGGSLRVSCAASRRIYNLNAMGWYRQAPGKERELVAAISKSGTRTYYADSVKGRFTISRDNAKNTVYLPMNSLKPEDTAVYSCAARRSSVTQSTTYPAVRQRYGYWGQGTQVTVSS | high polyreactivity
QVHLVESGGGIDQAGGSLRLSCAASGSIFRNYAMAWKRQAPGKERELVAFITRGGSTYYADSVKVRFTISRDNAKNTVYFQMNSLKPEHTAVYYCAADFWPAGLDLGYWGQGTQVTLSS | low polyreactivity

Sequence | polyreactivity (PSR sort gate)
QVHLVESGGGIVQAGGSLRLSCAASGRTFGVNAMGWYRQAPGQEMELVAAISYSGASTFYADSLKGRFTISRDKAKNNVYLQMNSLKPEDTAVYYCAKRVVRYGKRMGYWGQGTQVTVSS | high polyreactivity
QVHLVESGGGLDQAGGSLRLSCAASGIIFFKNAMGWYRPAPGKERELVAAISSTDTRTYYADSVKGRFTISRDNAKNTVYLQKNSLKPEDTAVYYCAADYIYYYEQYLWYTYDYWGQGTQVTLSS | high polyreactivity
QVHLVESGGGLLQAGGSLRLSCAASGSTFSINGMGWYRQAPGKERELVAAITWRGTRTYYADSVKGRFTISRDNAKNTVYLEMNSLKPEVTAVYYCAATGSGEASFYYWGQGTQVTVSS | high polyreactivity
QVHLVESGGGLVHAGGSLRLSCAASGSIFPYYAMGWYRQAPGKETELVAAISRSGGSTYYADSVKGRFTISRDYAKNTVYLQMNSLKPDDTAVYYCAADYARYVRKTRYGSWGKGTQVTVSS | high polyreactivity
QVHLVESGGGLVKAGGSLRISCAASGRTFVCYAMGCYRPAPGKERELVAAISSGGSTNYADSVKGRFTISRDNAKNTVYLLMICLKPEDTAVYYCNRRSYQRGWHWARGRYGFWGQGTQVTVSS | high polyreactivity
QVHLVESGGGLVKAGGSLRLSCAASGITFGSYAMGWYRQAPGKERELVAAIDTSGDDTYYADSVKGRFTISRDNAKNTVYLQMNSLKPEDTAVYYCAADFPSAEVDYWGQGTQVTVSS | low polyreactivity
QVHLVESGGGLVKAGGSLRLSCAASGLIFTQYSMGWYRQAPGTERELVAGITSSGGSTNYADSVKGRFTISRDNAKNTVYLQMNSLKPEDTAVYYCATRLGVLYDYWGQGTQVTVSS | low polyreactivity
QVHLVESGGGLVKAGGSLRLSCAASGSTFYANAMGWYRQAPGKEREFVASITWSGGSTYYADSVKGRFTISRDNAKNTVYLQMNSLKPEDTSVYYCAANIGHNGFDYWGQGTQVNVSS | low polyreactivity
QVHLVESGGGLVKAGGSLRLSCAASGSTKNYVMGWYRQAPGKERELVAAISRGSSTYYADSVKGRFTISRDNAKNTVYLQMNSLKPEDTAVYYCAARGPWQAPYDYWGQGTQVTVSS | high polyreactivity
QVHLVESGGGLVKAGGSLRLSCAASGSTKYYVMGWYRQAPGKERELVAAISRGSSTYYADSVKGRFTISRDNAKNTVYLQMNSLKPEDTAVYYCAARGPWQAPYDYWGQGTQVTVSS | high polyreactivity
QVHLVESGGGLVKAGGSLRLSCAASGSTSTLYAMGWYRQAPGKERELVAAISKSGGRTYYADSVKGRFTNSRDNAKNTVYLQMNSLKPEDTAVYYCNTVPGRYRTFDYWGQGTQVTVSS | high polyreactivity
QVHLVESGGGLVLAPASLRLSSPASGHNQGIYAMGWYRQAPGKEREFVAAISRGGGSTYYADSVKGRFTISRDNAKNTVYLQMNSLNPEDTAVYYCNAVRDRYGVFPYYYWGQGTQVTVSS | high polyreactivity
QVHLVESGGGLVPAGGSLRLSCPASGSIFYEYAMGWYRQPPGKERELVAAITVTSGSTYYADSVKGRFTISRDNAKNTVYLQMNSLKPEDTAVYYCASRIYHTYRFYYWGQGTQVTVSS | low polyreactivity
QVHLVESGGGLVQAGASHRLSCAASGSISKSYAMGWYRQAPGKERELVAAISWRGGSTYADSVKGRFTISRDNAKNTVYLQMNSLKPEDTAVYYCAATNYGTFWVGQSERYDYWGQGTQVNVSS | low polyreactivity
QVHLVESGGGLVQAGCSLRLRSAASGRIFSRNAMGRYRQAPGKERELVAAISTGGTTNYADSVKGRFTISRDNANNTVYLQMNSLKPEDTALYYCNAGLLRRRMDYWGQGTQVTVSS | high polyreactivity
QVHLVESGGGLVQAGCSLRLSCAASGSTIYRYAMGWYRQAPGKERELVASINGGDDTYYADSVKGRFTISRDNAKNNVYLQMTSLKPEDTAVYYCAAEVYGSWPFDTYYYWGQGTQVTVSS | high polyreactivity
QVHLVESGGGLVQAGGILRLSCAAFGFTFKSYAMVWYIQAPGKERELVAGITSSGGGTYYADSVKGRFTISRDNAKNTVYLQMNSLKPEDTAVYYCNTYSYLFSRYGYWGQGTQVTVSS | high polyreactivity
QVHLVESGGGLVQAGGILRLSCAASGFIFVRNAMGWYRQERGKEREFVAAINSSGGRTYYADSVKGRFTISRDNAKNTVYLQMNSLKPEDTAVYYCAARSQPKKFYYWGQGTQVTVSS | high polyreactivity
QVHLVESGGGLVQAGGILRLSCAASGFTFTSNAMGWYRQAPGKEREFVADISNIGGDTTYADSVKGRFTISRDNAKNTVYLQMNSLKPEDTAVYYCNADFAFIENDYWGQGTQVTVSS | low polyreactivity
QVHLVESGGGLVQAGGILRLSCPASGSTFVYYAMVWYRQAPGKERELVAAISRSGGNTYYAYSVKGRFTISRDNAKNTVYLQMNSLKQEDTAVYYCAARSYGVQYYYWGQGTQVTVSS | high polyreactivity
QVHLVESGGGLVQAGGRLRLSCAASGFTLRYYAMGWYRQAPGKESELVATINRSGASTYYADTVKGRFTISRDNAKNTVYLQMNSQKPEDTAVYYCKTATSRAYRYDYWGQGTQVTVSS | low polyreactivity
